Test results from the supplement of paper PMC12764529.
± gives the half width of the 95% confidence interval.

Columns and labels:
[1] = folding stability dG unfold from chymotrypsin proteolysis; higher = more stable
Outline: (§1)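 Unfolding free energy was derived, per protease or combined, against a sequence-predicted unfolded-state K50 and a shared folded-state K50, starting from K50 inferred by Bayesian fitting of sequencing counts. Digestion with trypsin and chymotrypsin was carried out on designed mini-proteins under 80 residues without cysteine in a PA-tagged cDNA display construct. Only designs with AlphaFold2 dimer inter-PAE above 15 were kept.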

[2] = folding stability dG unfold from trypsin proteolysis; higher = more stable
Outline: as §1

[3] = folding stability dG unfold (combined trypsin and chymotrypsin); higher = more stable
Outline: as §1

| Sequence | folding stability dG unfold [1] | folding stability dG unfold [2] | folding stability dG unfold [3] |
| --- | --- | --- | --- |
| SAGGMTASSTTLPPSGITSQTTTDPATGVTTTTTRYPDGTVTTTTTTALPPPAAATTTTTTALPGSAAASAG [r5_766_JUSTAS] | 1.68 ± 0.07 kcal/mol | 1.93 ± 0.12 kcal/mol | 1.77 ± 0.086 kcal/mol |
| SAGGPFRVRISDEVIKELKKQGLKPGKKSVKITMQYPNGWVFRGTIKIPPANPKIPLKAEPVERLDDSAGGS [r16_497_TrROS] | 0.386 ± 0.17 kcal/mol | 0.429 ± 0.074 kcal/mol | 0.482 ± 0.11 kcal/mol |
| SAGGSAGGSAGEKTLKIVADSEEEAEALAKELAEKYNLEVTIERNPEEEGKYVITIKIKPSAGGSAGGSAGG [r11_797_TrROS_Hall] | 3.5 ± 0.045 kcal/mol | 2.46 ± 0.14 kcal/mol | 3.17 ± 0.17 kcal/mol |
| SAGGSAGGKPIWEFELEFPDGYKIRITYWPGYVRVEIHNPDGRQLEVNVPGKSPEDALDALLDASAGGSAGG [r6_459_TrROS] | 4.19 ± 0.19 kcal/mol | 3.32 ± 0.22 kcal/mol | 3.88 ± 0.24 kcal/mol |
| SAGFGVYKHKYKYDNDDGNPKPKKPEEEPVEPAPPIEPLPIPIRLPDGQPFTFTILSISPKNNNISLNGSAG [r5_735_TrROS] | 0.382 ± 0.2 kcal/mol | 0.279 ± 0.22 kcal/mol | 0.452 ± 0.2 kcal/mol |
| SAGGGVTITLKTADGKTLTLEIPGLTSVTVEPDKVTVEFEIPDYRITITFNPSTGTVEIKISHPDEPESAGG [r13_392_TrMRF] | 3.93 ± 0.19 kcal/mol | 3.37 ± 0.19 kcal/mol | 3.8 ± 0.2 kcal/mol |
| SAGGPKTIMAMIPRDSPELRKALKWLEKAPPGEEVELKLPGKPIRITNIQPVDDWWMFSVKIPPGLKSAGGS [r16_404_TrROS] | 0.462 ± 0.31 kcal/mol | 1.52 ± 0.16 kcal/mol | 0.885 ± 0.19 kcal/mol |
| SDDIKNMPFRITEIEPLPPGDPIPPGQRIRITIQMPDFPGQPFEFDIRVDPENGMIYMEMGGMPFEIPIKSA [r9_243_TrROS] | 1.6 ± 0.13 kcal/mol | 1.6 ± 0.019 kcal/mol | 1.67 ± 0.15 kcal/mol |
| SAGGSAGGSSSATLAADETATLRFRVTLTFGSGVRSGTADLSGSVSATVEVDVEIEVRNLADDSAGGSAGGS [r12_668_TrMRF] | 4.62 ± 0.082 kcal/mol | 3.32 ± 0.056 kcal/mol | 4.24 ± 0.07 kcal/mol |
| SAGGSAGGSAMTLNVPDAGGKTYTVEVLSYDPVKNTWTLLNPSTSETITITAEEAAKIKAAASAGGSAGGSA [r18_161_JUSTAS] | 2.01 ± 0.066 kcal/mol | 2.01 ± 0.072 kcal/mol | 2.1 ± 0.11 kcal/mol |
| SAGGRRKIEFEVWIPMDKDGEITPNEIIEEAREIAEALPNFDNVEIEEISIQHHPDGWTRYNITIEVPSAGG [r13_462_TrROS] | 2.42 ± 0.058 kcal/mol | 2.16 ± 0.16 kcal/mol | 2.31 ± 0.31 kcal/mol |
| SMPGVRVRLYTVRVKTPEGGELTAPIAVPAELFTEEEIRELVREAFPDAEDVEIEPAVLELPPAPGLLTASA [r9_841_TrMRF] | 1.31 ± 0.1 kcal/mol | 1.39 ± 0.034 kcal/mol | 1.43 ± 0.079 kcal/mol |
| KTVMIMFKNPEQILNQLREARDDGKTVSIMFPDEWINELKNLGFKIDKITDVQPMPGNDSYMVEIKIKPKDS [r1_173_TrROS] | 2.31 ± 0.12 kcal/mol | 1.29 ± 0.12 kcal/mol | 1.95 ± 0.2 kcal/mol |
| SAGGSAGGKPDLLLEARTDLFGEEREAEVFYDPSPPVLTITLPDGTVITLPEEEVEIEKETPLISAGGSAGG [r6_185_JUSTAS] | -0.273 ± 0.065 kcal/mol | -0.297 ± 0.12 kcal/mol | -0.243 ± 0.28 kcal/mol |
| SAGGSMIITRDPATGLVTVYKNGKKVKTIEVPPGNPVGVSLSYNPSPNTYTVTLTTPESPVKISNLSAGGSA [r2_399_JUSTAS] | 1.31 ± 0.083 kcal/mol | 0.855 ± 0.032 kcal/mol | 1.15 ± 0.06 kcal/mol |
| SAGGSAGGSAGKKKYKIVSIEIERNKDGNSLTVKIKLENGKELTLTFPTEEDLKNLKIKASAGGSAGGSAGG [r11_711_TrROS_Hall] | 3.104 ± 0.028 kcal/mol | 1.59 ± 0.1 kcal/mol | 2.78 ± 0.075 kcal/mol |

| Sequence | folding stability dG unfold [1] | folding stability dG unfold [2] | folding stability dG unfold [3] |
| --- | --- | --- | --- |
| SAGGSAGGPKEKKWYVMVHITWRDDGKERPRHFMFKSPEQVIEALEEQLPPDNIEIDVAVFPYKSAGGSAGG [r6_114_TrROS] | 2.95 ± 0.053 kcal/mol | 1.63 ± 0.034 kcal/mol | 2.33 ± 0.086 kcal/mol |
| SAGGMKITITLTVKNEELLEELKKLAEELGLKVKIEVKYDEETNELTVTVEIELPPPPEEPSEEELKSAGGS [r16_262_TrROS_Hall] | 3.4 ± 0.14 kcal/mol | 2.49 ± 0.12 kcal/mol | 3.24 ± 0.15 kcal/mol |
| SAGGSAGGSAGTITTPTAEFTVTLDPNGTYTVTYQNTTTTVPVGAPFTLPGGEPLTVVPASAGGSAGGSAGG [r11_147_JUSTAS] | 0.931 ± 0.11 kcal/mol | 0.0786 ± 0.069 kcal/mol | 0.601 ± 0.13 kcal/mol |
| SAGGSAGGSAGGKKIKIKINSPGNAEEVKKLLEPFGLEVDSIKENKNNPNLIIVEVNVESAGGSAGGSAGGS [r10_104_TrMRF] | 0.563 ± 0.031 kcal/mol | -0.276 ± 0.11 kcal/mol | 0.242 ± 0.11 kcal/mol |
| SAGGSASTVTRTRTIPGSGLTVEITETPLPDGTYSYTVTFYAPDSALKTTPKTAAPDELPEEELLSSAGGSA [r15_147_JUSTAS] | 1.48 ± 0.042 kcal/mol | 0.35 ± 0.049 kcal/mol | 1.1 ± 0.06 kcal/mol |
| SAGGSAGGSAGGMTPEEIEALKARPLPDGSPILSIDREGNVYTITTARDPSVRTTVIPAESAGGSAGGSAGG [r7_995_JUSTAS] | -0.853 ± 0.43 kcal/mol | -0.623 ± 0.61 kcal/mol | -0.626 ± 0.54 kcal/mol |
| SAGGSAGGSAEPPEPEVVAVTVEITEEDGELTITVTNEDTGEKYTFTLKNVEVKPGDTLLIRSAGGSAGGSA [r18_89_TrROS_Hall] | 1.77 ± 0.34 kcal/mol | 0.402 ± 0.26 kcal/mol | 1.21 ± 0.56 kcal/mol |
| SMKKNYKIKIEIIDIKIYNKNIPKNKPKYITIKAKITIYYKNKPYKYTIEIKYKIYNGKIYIIGSKIKPESA [r9_270_TrMRF] | 3.761 ± 0.025 kcal/mol | 3.36 ± 0.1 kcal/mol | 3.66 ± 0.11 kcal/mol |
| SAGGSAGGSAKMIIRIRNKNGKIIELTLEEVAKKLGLSKEEMTAEEILKKLKENIEKVEILPSAGGSAGGSA [r18_403_TrROS_Hall] | 3.18 ± 0.048 kcal/mol | 2.9 ± 0.047 kcal/mol | 3.1 ± 0.07 kcal/mol |
| SAGGKKKKPKKKIKIKIVKVEKKYDKKTGKLKEVRIEIEIEAESEEEAKKLAEELAKKLNIEVEVKKKSAGG [r13_606_TrROS_Hall] | 2.44 ± 0.096 kcal/mol | 1.28 ± 0.11 kcal/mol | 2.01 ± 0.32 kcal/mol |
| SMKPGEKLEIEVEIKVEEEDEEKRKKALEEAEEKLRELFEKLGLKDIKKVEVVEVEKLPDGTVKVKIRIDSA [r9_754_TrROS_Hall] | 1.32 ± 0.11 kcal/mol | 2.39 ± 0.18 kcal/mol | 1.71 ± 0.24 kcal/mol |
| SAGGSAGGPNIEIMSMFKHPNGTIVIFIRTPEGRYIVIKIPPPGNIKIVGVYPLPPGDPLLERLSAGGSAGG [r6_715_TrROS] | 3.14 ± 0.12 kcal/mol | 2.43 ± 0.17 kcal/mol | 3.06 ± 0.2 kcal/mol |
| SAGGSAGGSKSYEIKEITFDPENNTITIVLVAPDGKIVRTETFKPGEEVVFTFENGEKVTVKASAGGSAGGS [r12_441_TrMRF] | 2.828 ± 0.008 kcal/mol | 1.99 ± 0.059 kcal/mol | 2.54 ± 0.05 kcal/mol |
| SAMIMIRVEYPNGKTWPIMIPLRTPDGDPTKEEVEEIAERIADEIAEEHGGDNVKIEIQVMPMPPEENPSAG [r14_378_TrROS] | 1.5 ± 0.12 kcal/mol | 2.23 ± 0.081 kcal/mol | 1.82 ± 0.24 kcal/mol |
| SAGMTTEKSPSGVGRVYLPTRTLELELLPDGTVVLRFPDGTEVVHPLSPEEAAAVRAELRARGLVVRPLSAG [r5_753_JUSTAS] | 1.81 ± 0.092 kcal/mol | 1.59 ± 0.062 kcal/mol | 1.7 ± 0.1 kcal/mol |
